B1: TNXB (parent)
chain: LLQRELMVPGTRHSAVLRDLRSGT

Variants of: B1
Experiment: protein stability index of a GFP-peptide fusion (GPS, HEK-293T) (PSI 1-6); higher = more stable
Conditions: c terminus: a fixed tail appended
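Note: lentivirally expressed fusions sorted by FACS into six bins by GFP to DsRed ratio, PSI derived from sequencing read proportions per bin multiplied by bin number.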

In order of rising protein stability index:
1. LLQRELMVPGTRFSAVLRDLRSGT [H13F]  1.59
2. LLQRELMVPGTRHLAVLRDLRSGT [S14L]  1.61
3. LLYRELMVPGTRHSAVLRDLRSGT [Q3Y]  1.72
4. LLIRELMVPGTRHSAVLRDLRSGT [Q3I]  1.72
5. LLLRELMVPGTRHSAVLRDLRSGT [Q3L]  1.73
6. LLQRELMVPGTRHSAVLRDLRSLT [G23L]  1.81
7. LLQRELMVPGTRHSAVLRDLRVGT [S22V]  1.82
8. LLQRELMVPGTRISAVLRDLRSGT [H13I]  1.91
9. LLQRELMVPGTRHSAVLRDFRSGT [L20F]  1.92
10. LLQRELMVPGTFHSAVLRDLRSGT [R12F]  1.98
11. LLQRELMVPGTRHSAVLRDLRCGT [S22C]  2
12. LLQRELMVPGTRLSAVLRDLRSGT [H13L]  2.01
13. LLQRELMVPGTRWSAVLRDLRSGT [H13W]  2.01
14. LLQRELMVPGTAHSAVLRDLRSGT [R12A]  2.01
15. LLQRELMVPGTRHSAVLRDLRLGT [S22L]  2.04
16. LLQRELMVPGTRHSAVLRDLRSWT [G23W]  2.09
17. LLQRELMVPGTRHSAVLRDLRNGT [S22N]  2.09
18. LLQRELMVPGTRVSAVLRDLRSGT [H13V]  2.1
19. LLQRELMVPGTRHWAVLRDLRSGT [S14W]  2.11
20. LLQRELMVPGTRHSAVLRDLRGGT [S22G]  2.12
21. LWQRELMVPGTRHSAVLRDLRSGT [L2W]  2.12
22. LCQRELMVPGTRHSAVLRDLRSGT [L2C]  2.13
23. LLQRELMVPGTRHSAVLRDLRSGH [T24H]  2.13
24. LLQRELMVPGTRHSAVLRDLRSYT [G23Y]  2.14
25. LLQRELMVPGTRYSAVLRDLRSGT [H13Y]  2.15
26. LLQRELMMPGTRHSAVLRDLRSGT [V8M]  2.15
27. LFQRELMVPGTRHSAVLRDLRSGT [L2F]  2.15
28. LLQRELMVPGTRHSAVLRDLRYGT [S22Y]  2.18
29. LLQRELMVPGTRHSAVLRDLRMGT [S22M]  2.19
30. LLQRELMVPGTRHAAVLRDLRSGT [S14A]  2.2
31. LLQRELMPPGTRHSAVLRDLRSGT [V8P]  2.21
32. LLQRELMVPGTRTSAVLRDLRSGT [H13T]  2.22
33. LLQRELMVPGTRHSAVLRDLRSMT [G23M]  2.22
34. LLQRELMVPGTRHMAVLRDLRSGT [S14M]  2.23
35. LLQRELMVPGTRHHAVLRDLRSGT [S14H]  2.26
36. LLQRELMVPGTVHSAVLRDLRSGT [R12V]  2.26
37. LLQRELMFPGTRHSAVLRDLRSGT [V8F]  2.28
38. LMQRELMVPGTRHSAVLRDLRSGT [L2M]  2.28
39. LLQRELMVPGTRHSAVLRDLRSGM [T24M]  2.29
40. LLQRELMVPGTRHSAVLRDWRSGT [L20W]  2.3
41. LLQRELMVPGTRHSAVLRDLRSAT [G23A]  2.31
42. LLQRELMVPGTRHPAVLRDLRSGT [S14P]  2.32
43. LLQRELMVPGTRHFAVLRDLRSGT [S14F]  2.32
44. LLQRELMWPGTRHSAVLRDLRSGT [V8W]  2.34
45. LLQRELMVPGTRHSAVLRDLRSIT [G23I]  2.35
46. LLQRELMLPGTRHSAVLRDLRSGT [V8L]  2.35
47. LLQRELMVPGTWHSAVLRDLRSGT [R12W]  2.35
48. LLQRELMTPGTRHSAVLRDLRSGT [V8T]  2.36
49. LLQRELMVPGTRHSAVLRDLRSTT [G23T]  2.43
50. LLQRELMVPGTRHRAVLRDLRSGT [S14R]  2.45
51. LLQRELMVPGTYHSAVLRDLRSGT [R12Y]  2.45
52. LVQRELMVPGTRHSAVLRDLRSGT [L2V]  2.48
53. LLQREMMVPGTRHSAVLRDLRSGT [L6M]  2.49
54. LLQRELMVPGTRHSAVLRDIRSGT [L20I]  2.52
55. LLQREWMVPGTRHSAVLRDLRSGT [L6W]  2.52
56. LLQRELMVPGTRHSAVLRDPRSGT [L20P]  2.53
57. LLFRELMVPGTRHSAVLRDLRSGT [Q3F]  2.59
58. LLSRELMVPGTRHSAVLRDLRSGT [Q3S]  2.61
59. LLQRELMVPGTRHSAVDRDLRSGT [L17D]  2.62
60. LLQRELMVPGTRHGAVLRDLRSGT [S14G]  2.63
61. LLQRELMVPGTRHSAVLRDLRSGY [T24Y]  2.64
62. LLQRELMVPGTRHSAVLRDHRSGT [L20H]  2.7
63. LLQRELMVPGTRHSAVLRDLRSGA [T24A]  2.7
64. LLQRELMVPGTRHSAVLRDLRRGT [S22R]  2.78
65. LLQREKMVPGTRHSAVLRDLRSGT [L6K]  2.79
66. LLQRELMVPGTRHSAVIRDLRSGT [L17I]  2.81
67. LLQRELMVPGTRESAVLRDLRSGT [H13E]  2.82
68. LLQRELMVPGTRHSAVLRDLRSFT [G23F]  2.82
69. LLQRELMVPGTRHSAVGRDLRSGT [L17G]  2.84
70. LLQRELMVPGTRHSAVLRDCRSGT [L20C]  2.85
71. LLQRELMVPGTRHSAVLRDQRSGT [L20Q]  2.89
72. LLQRENMVPGTRHSAVLRDLRSGT [L6N]  2.9
73. LLQRELMVPGTRHSAVLRDLRSKT [G23K]  2.92
74. LLQRELMVPGTRHSAVLRDLRSST [G23S]  2.94
75. LLQRELMVPGTRHSAVNRDLRSGT [L17N]  2.96
76. LLQRELMVPGTRHSAVLRDARSGT [L20A]  2.97
77. LLQRELMVPGTRHSAVLRDLRSET [G23E]  3.05
78. LLQRELMVPGTRHSAVMRDLRSGT [L17M]  3.05
79. LLQRELMVPGTRPSAVLRDLRSGT [H13P]  3.06
80. LLQREPMVPGTRHSAVLRDLRSGT [L6P]  3.15
81. LLQRELMVPGTRHSAVSRDLRSGT [L17S]  3.16
82. LLQREHMVPGTRHSAVLRDLRSGT [L6H]  3.18
83. LDQRELMVPGTRHSAVLRDLRSGT [L2D]  3.23
84. LLQRELMVPGTRHSAVQRDLRSGT [L17Q]  3.32
85. LKQRELMVPGTRHSAVLRDLRSGT [L2K]  3.33
86. LAQRELMVPGTRHSAVLRDLRSGT [L2A]  3.36
87. LLQRELMVPGTRHSAVLRDERSGT [L20E]  3.37
88. LSQRELMVPGTRHSAVLRDLRSGT [L2S]  3.4
89. LLQRELMVPGTRHSAVERDLRSGT [L17E]  3.47
90. LQQRELMVPGTRHSAVLRDLRSGT [L2Q]  3.54
91. LLQRELMVPGTRHSAVLRDDRSGT [L20D]  3.65
92. LPQRELMVPGTRHSAVLRDLRSGT [L2P]  3.71
93. LLQRELMVPGTRHSAVKRDLRSGT [L17K]  3.75
94. LRQRELMVPGTRHSAVLRDLRSGT [L2R]  3.92

From the supplement of paper PMC10567573
